Test [1] concerns the target GnRH receptor of rat pituitary membranes (rat) (UniProt P30969). The experiment in a line: radioligand displacement on rat pituitary membranes, equimolar concentrations; reference native GnRH. In general terms: Loss of bound radioactivity is the signal in a displacement assay; it reports binding, not function.
In test [2] the target is LH receptor on bovine granulosa cells and small luteal cells (bovine) (UniProt Q28005). Nature of the test: cell-based or functional assay.

For two substances, displacement of radiolabelled GnRH as percent of the cpm displaced by native GnRH, killing of bovine granulosa cells (Trypan Blue exclusion) (fold of the cells killed by hecate alone) and killing of bovine small luteal cells (Trypan Blue exclusion) (fold of the cells killed by hecate alone) results are on record in patent publication EP0975354B1.

Sequence of UniProt Q28005 (Q28005 27-701): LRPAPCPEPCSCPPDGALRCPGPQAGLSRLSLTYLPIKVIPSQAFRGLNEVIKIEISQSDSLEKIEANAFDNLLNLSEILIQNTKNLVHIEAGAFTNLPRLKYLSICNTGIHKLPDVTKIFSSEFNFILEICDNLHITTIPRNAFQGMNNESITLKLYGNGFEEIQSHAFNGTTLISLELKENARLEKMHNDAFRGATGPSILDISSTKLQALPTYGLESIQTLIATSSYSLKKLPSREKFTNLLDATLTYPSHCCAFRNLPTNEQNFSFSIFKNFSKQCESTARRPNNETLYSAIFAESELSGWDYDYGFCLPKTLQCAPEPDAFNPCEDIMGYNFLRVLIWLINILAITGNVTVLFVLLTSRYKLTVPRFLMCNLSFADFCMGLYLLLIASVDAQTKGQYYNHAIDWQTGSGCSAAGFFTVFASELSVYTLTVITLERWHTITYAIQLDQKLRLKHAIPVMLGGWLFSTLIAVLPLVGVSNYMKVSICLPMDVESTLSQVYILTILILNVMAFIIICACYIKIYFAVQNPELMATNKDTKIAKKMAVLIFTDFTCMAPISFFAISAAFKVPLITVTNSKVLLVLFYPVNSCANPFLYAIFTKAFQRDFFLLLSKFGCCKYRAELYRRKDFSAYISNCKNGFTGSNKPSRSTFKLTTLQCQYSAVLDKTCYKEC
Sequence of UniProt P30969 (P30969 whole entry): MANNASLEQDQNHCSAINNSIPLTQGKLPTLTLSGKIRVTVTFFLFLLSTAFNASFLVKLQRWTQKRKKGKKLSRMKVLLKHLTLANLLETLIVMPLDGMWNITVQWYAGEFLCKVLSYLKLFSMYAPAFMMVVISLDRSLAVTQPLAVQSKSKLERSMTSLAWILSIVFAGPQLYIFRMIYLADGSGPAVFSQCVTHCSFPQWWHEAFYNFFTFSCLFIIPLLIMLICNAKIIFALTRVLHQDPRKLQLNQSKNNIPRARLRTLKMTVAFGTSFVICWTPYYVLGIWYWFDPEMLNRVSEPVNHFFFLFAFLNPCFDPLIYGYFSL

D-Lys6GnRH (peptide) gave a displacement of radiolabelled GnRH as percent of the cpm displaced by native GnRH in test [1] of 187%.
In test [2], hecate-bLH conjugate (peptide) returned a killing of bovine granulosa cells (Trypan Blue exclusion) (fold of the cells killed by hecate alone) of 2 and a killing of bovine small luteal cells (Trypan Blue exclusion) (fold of the cells killed by hecate alone) of 2.
